We go through 16 molecules from patent US20260234247A1 (published 2026).

First the molecules themselves.
B1: LK-RB1-7 (antibody, human IgG4 S228P, kappa, V domains shown)
VH: QIQLVQSGPELKKPGETVKISCKASGYTFTTYGMSWVKQAPGKDLKWMGWINTFSGVPACADDFQGRFDFSAEPSDSTAHLQINNLKNEDTATYFCARRSYYGSRGWYFDVWGTGTTVTVSS
VL: DVQMIQSPSSLSASLGDIVTMTCQASQDTTINLNWFQQKPGKVPKLLIYGASNLEDGVPSRFSGSSFGTDFTLTISSLEDEDMATYFCLQHTYLPRTFGGGTKLEIRR
B2: LK-RB1-21 (antibody, human IgG4 S228P, kappa, V domains shown)
VH: QVQLQQPGAELVKPGASVKMSCKASGYIFTDYWTTWVKQRPGQGLEWIGDIYPVSGSTNYNEKFKNKATLTVDTSSSTAYMQLSSLTSEDSAVYYCARALGRRYYFDYWGQGTTLTVSS
VL: DIVMTQSHKFMSTSIGDRVSITCKASQDVSTAVAWCQQKPGQSPKSLIYSASYRYTGIPDRFTGSGSGTDFTFTISSVQAEDLAVYYCQQHYTNPVTFGTGTKLELKR
B3: LK-RB1-25 (antibody, human IgG4 S228P, kappa, V domains shown)
VH: QIQLVQSGPELKKPGETVKISCKASGYTFTSYGMNWMKQAPGEGLKWMGWINTYSGVPTYADDFKGRFAFSLETSATTVYLQINNLKNEDKATYFCARRGRDSVVGHFDVWGTGTTVTVSS
VL: DIVMTQSHKFMSTSVGDRVSITCKASQDVNTAVAWYQQKPGQSPKLLIYWASTRHTGVPDRFTGSGSGTDFTLTISSVQAEDLALYYCQQHYTIPFTFGSGTKLEIKR
B4: LK-RB1-20 (antibody, human IgG4 S228P, kappa)
heavy: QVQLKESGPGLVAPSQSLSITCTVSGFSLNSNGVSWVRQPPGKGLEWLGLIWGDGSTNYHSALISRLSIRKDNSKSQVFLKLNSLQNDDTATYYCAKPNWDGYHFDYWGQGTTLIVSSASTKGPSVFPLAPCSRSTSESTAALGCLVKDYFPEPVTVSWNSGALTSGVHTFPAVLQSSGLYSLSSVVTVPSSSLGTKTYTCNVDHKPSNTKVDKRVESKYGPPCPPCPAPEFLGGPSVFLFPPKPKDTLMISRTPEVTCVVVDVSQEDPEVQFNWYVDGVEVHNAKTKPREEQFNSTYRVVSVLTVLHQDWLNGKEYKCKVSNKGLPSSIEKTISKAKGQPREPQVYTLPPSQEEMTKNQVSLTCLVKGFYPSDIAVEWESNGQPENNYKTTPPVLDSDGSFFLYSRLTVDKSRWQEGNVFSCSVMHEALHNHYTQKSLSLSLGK
light: DIQMNQSPSSLSASLGDTITITCHASQNIDFWLSWYQQKPGNIPKLLIYKASNLHTGVPSRFSGSGSGTGFTLTISSLQPEDIATYYCQQGQSYPLTFGAGTKLELKRTVAAPSVFIFPPSDEQLKSGTASVVCLLNNFYPREAKVQWKVDNALQSGNSQESVTEQDSKDSTYSLSSTLTLSKADYEKHKVYACEVTHQGLSSPVTKSFNRGEC
B5: LK-RB1-8 (antibody, human IgG4 S228P, kappa, V domains shown)
VH: QVQLQQSGAELVRPGTSVKVSCKASGYAFSNYLIEWVKQRPGQGLEWIGVINPGSDGSTYNEKFKGKATLTADKSSNTAYMQLSSLTSEDSAVYFCARGDYGRSYGMDYWGQGTSVTVSS
VL: DIVMTQSQKFMSTTVGDRVSITCKASQNVGTAVVWYQQKPGQSPKLLIYSASNRYTGVPDRFTGSGSGTDFTLTISNMQSEDLADYFCQQYSSYMYTFGGGTKLEIKR
B6: LK-RB1-17 (antibody, human IgG4 S228P, kappa, V domains shown)
VH: QVQLQQPGAELVKPGASVKLSCEASGYTFTNYWIHWVKQRPGRGLEWIGRIAPNSGGTKYNEKFKTRATLTVDKASTTAYMQLSSLTSEDSAVYYCARLDGSPYYFDYWGQGTTLTVSS
VL: DIVMTQSQKFMSTSIGDRVSVTCKASQNVDTNVAWYQQKPGQSPKALIYSASYRYSGIPDRFTGSGSGTDFTLTISNVQSEDLAEYFCQQYNSYPYTFGGGTKLEIKR
B7: LK-RB1-14 (antibody, human IgG4 S228P, kappa, V domains shown)
VH: QVTLKESGPGILKPSQTLSLTCSFSGFSLSTSGMGVGWIRQPSGKGLEWLAHIWWDDDKYYNPSLKSQLTISKDTSRNQVFLKITSVDTADTATYYCARTELGRGDSWGQGTSVTVSS
VL: DILLTQSPAILSVSPGERVSFSCRASQSIGTSIHWYQQRTNGSPRLLIKYASESISGIPSRFSGSGSGTDFTLSINSVESEDIADYYCQQSYSWPYTFGGGTKLEIKR
B8: LK-RB1-15 (antibody, human IgG4 S228P, kappa, V domains shown)
VH: QVTLKESGPGIVKPSQTLSLTCSFSGFSLSISGTGIGWIRQPSGKGLEWLAHIWWDDDKYYNPSLKSQVTISKDTSTKQVFLNITSVDTADTATYYCTRTELGRGDFWGQGTSVTVSS
VL: DILLTQSPAILSVSPGDRVSFSCRASQSIGTNIHWYQRRTNGSPRLLIKYGSESISGIPSRFSGSGTGTDFTLTINSVESEDIADYYCQQSYSWPYTFGGGTKLEIKR
B9: LK-RB1-18 (antibody, human IgG4 S228P, kappa, V domains shown)
VH: QVQLKESGPGLVAPSQSLSITCTVSGFSLTNSGVTWIRQPPGKGLEWLGVIWGDGSTNYHSALISRLSISKDNSKSQVFLKLNSLQTDDTATYYCAKPHWDYYNMDYWGQGTSVTVSS
VL: DIQMTQTPSSLSASLGDRVTISCRASQDISNYLNWYQQKPDGTVKLLIYFTSRLHSGVPSRFSGSGSGTDYSLTISNLEQEDFATYFCQQGITLPLTFGAGTKLELKR
B10: LK-RB1-19 (antibody, human IgG4 S228P, kappa, V domains shown)
VH: QVQLKESGPGLVAPSQNLSITCTVSGFSLTSYGVSWVRQPPGKGLEWLGIIWGDGNTDYHSALISRLSIRKDNSKSQVFLKLNSLKSDDTATYYCAKPHWEYYTMDYWGQGTSVTVSS
VL: DIQMTQTTSSLSASLGDRVTISCRASQDISNFLNWYQQKPDGTVKLLIYSTSRLHSGVPSRFSGSGSGTDYSLTIANLEQEDVATYFCQQGNTLPLTFGAGTKLELKR
B11: LK-RB1-26 (antibody, human IgG4 S228P, kappa, V domains shown)
VH: QVQLKESGPGLVAPSQSLSITCTVSGFSLTSYGVSWVRQPPGKGLEWLGIIWGDGSTNYHSALISRLSISKDNSKSQVFLKLNSLQTDDTATYYCAKPNWDYYAMDYWGQGTSVTVSS
VL: DIQMTQTTSSLSASLGDRVTISCRASQDISNFLNWYQQKPDGTFKLLISYTSTLHSGVPSRFSGSGSGTDYSLTISNLEQEDVATYFCQQGNTLPLTFGAGTKLALKR
B12: LK-RB1-22 (antibody, human IgG4 S228P, kappa, V domains shown)
VH: QVQLKESGPGLVAPSQSLSITCTVSGFSLTSYGVSWVRQPPGKGLEWLGIIWGDGNTNYHSALTSRLSISKDNSKSQVFLKLNSLRTDDTATYYCAKPHWDHYSMDYWGQGTSVTVSS
VL: DIQMTQTTSSLSASLGDRVTISCRASQDISNFLNWYQQKPDGTVKLLIYYTSRLHSGAPSRFSGSGSGTDYSLTISNLDQEDIATYFCQQGNTLPLTFGAGTKLELKR
B13: LK-RB1-23 (antibody, human IgG4 S228P, kappa, V domains shown)
VH: QVQLQQTGAELVRPGSSVKLSCKASGYTFTNYWMDWVKQRPGQGLEWIGNIHPFGNETHYNQKFKDKATLTVDKSSSTAYMQLSSLTSEDSAVYYCARGLLLYFDVWGTGTTVTVSS
VL: DIQMTQSPASQSVSVGETVTITCRASENIYSNLAWYQQKQGKSPQLLVYGATNLADGVSLRFSGSGSGTQYSLKINSLQSEDFGSYYCQHFWGIPWTFGGGTKLEIKR
B14: LK-RB1-27 (antibody, human IgG4 S228P, kappa, V domains shown)
VH: QVQLQQSGPELVKPGASVRMSCKASGYTFTSHYIHWMKQRPGQGLEWIGWIYPGDGHTKYHEKFKDRATLTADTSSITAYMRLSSLTSEDSAIYYCVYYSDSWFPYWGQGTLVTVSA
VL: DIQMTQSPASLSVSVGETVTITCRASENIYSNLAWYQQKQGKSPHLLVYAATNLADGVPSRFSGSGSGTQYSLKINSLQSEDFGNYYCQHFWGSPWTFGGGTKLEIKR
B15: LK-RB1-28 (antibody, human IgG4 S228P, kappa, V domains shown)
VH: QVQLQQSGPELVKPGTSVKMSCKASGYTFTSHYIHWMKQRPGQGLDWIGWIYPGDGHTKYHEKFKGKATLTADTSSITAYMQLSLLTSEDSAVYYCVYYSDSWFPYWGQGTLVTVSA
VL: DIQMTQSPASLSVSVGETVTITCRASENIYSNLAWYQQKQGKSPQLLVYAATNLADGVPSRFSGSGSGTQYSLKINSLQSEDFGNYFCQHFWGSPWTFGGGTKLEIKR
B16: LK-RB1-24 (antibody, human IgG4 S228P, kappa, V domains shown)
VH: QVQLQQPGAELVNPGTSVNLSCKASGYTFTGYWMHWVKQRPGQGLEWIGMIHPNNGGTIYNERFNGKATLTVDRSSTTAYIQLSSLTSEDSAVYYCAYWDLDYWGQGTTLTVSS
VL: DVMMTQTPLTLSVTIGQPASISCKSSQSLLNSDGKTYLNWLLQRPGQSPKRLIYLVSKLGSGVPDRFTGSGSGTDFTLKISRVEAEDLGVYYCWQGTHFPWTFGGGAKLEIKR

The assay deals with T1, human LILRB1 (human, UniProt Q8NHL6 24-458, limits assumed).
T1 construct: also called hLILRB1
T1 sequence (Q8NHL6 24-458 limits assumed): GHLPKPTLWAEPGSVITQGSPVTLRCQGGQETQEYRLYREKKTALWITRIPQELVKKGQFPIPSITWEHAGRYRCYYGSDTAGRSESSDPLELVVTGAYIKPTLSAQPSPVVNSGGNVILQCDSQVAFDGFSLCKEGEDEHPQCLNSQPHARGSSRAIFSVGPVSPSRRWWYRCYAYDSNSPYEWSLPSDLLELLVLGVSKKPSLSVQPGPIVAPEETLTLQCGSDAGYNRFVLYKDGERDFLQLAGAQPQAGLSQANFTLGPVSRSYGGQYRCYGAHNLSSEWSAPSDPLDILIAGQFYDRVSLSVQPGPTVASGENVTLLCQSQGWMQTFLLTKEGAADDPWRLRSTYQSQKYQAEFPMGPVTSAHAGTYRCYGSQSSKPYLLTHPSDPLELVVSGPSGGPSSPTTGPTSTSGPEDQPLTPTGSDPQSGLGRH
The assay can be described thus: Octet off-rate ranking.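 Further: antibody dissociation rate constants against cynomolgus LILRB2 plus human LILRB1, LILRB2, LILRA1 and LILRA2, measured on an Octet instrument to rank binding.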 Background: Biolayer interferometry detects binding as a change in optical thickness at a sensor tip.
Source text: Binding affinity of anti-LILRB1 and anti-LILRB2 antibodies against human LILRB1, LILRB2, LILRA1, LILRA2 and cynomolgus LILRB2 was ranked by measuring dissociation rate constant (Kdis) using the Octet system.
As usually defined, the koff is the rate constant with which the complex falls apart. High values mean a short-lived complex, low ones a long-lived complex. The molecule B1 gave a koff of 0.00059 s⁻¹.

Turning to B2, the koff was 4.02e-05 s⁻¹.

For the molecule B3, the koff stood at 9.03e-05 s⁻¹.

Regarding B4, the koff came out at 0.000141 s⁻¹.

With B5, the koff was 0.000218 s⁻¹.

B6 gave a koff of 0.000312 s⁻¹.

As for B7, the koff was 0.00131 s⁻¹.

Molecule B8 registered an off-rate (koff) of 0.000103 s⁻¹.

Take B9: the koff turned out to be 8.15e-05 s⁻¹.

On to B10, for which the koff stood at 4.78e-05 s⁻¹. This koff lies about 1.7-fold lower than the previous one.

Molecule B11 showed a koff of 0.000155 s⁻¹.

For the molecule B12, the koff is 0.000416 s⁻¹.

The molecule B13 gave a koff of 0.000477 s⁻¹.

Molecule B14 displayed a koff of 0.000112 s⁻¹.

B15 returned a koff of 6.28e-05 s⁻¹. Compared with the last molecule, the koff is about 1.8-fold lower.

On to B16, for which the koff amounted to 0.000987 s⁻¹.
